The text below walks through data of the nanobody polyreactivity screen of Harvey et al. (2022).

The nature of this series: yeast display, Sf9 membrane polyspecificity reagent, FACS + sequencing; frameworks hold sequencing errors. The method, boiled down: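 Using colony PCR, genes from sorted yeast display clones were amplified, then sequenced on MiSeq at 2 × 250 and filtered by CDR length. The clones had been stained with 10% biotinylated, detergent-solubilized Sf9 membrane reagent for 1 hour at 4 °C and sorted by FACS into low and high (top ~1%) gates on anti-HA and streptavidin fluorescence. Polyreactivity labels come from the gate of origin.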
As to “QVQLVESGGGLVQAGGSLRLSCAASARIFKLNAMGGYRQAPVKERELVAAINSGTRTYYADSVKGRFSISRDNAKNTVYLQMKSLKPEDTAVYYGAAEGVWWYSRYDYWGQGTQVTVSS”, the “polyreactivity (PSR sort gate)” value was “high polyreactivity”.
As for “QVQLVESGGGLVQAGGSLRLSCAASARIFKTYAMGWYIQAPGKERELVATITWSGGSTYADSVKGRFTITRDNAKNTVYLQMNSLKPEDTAVYYCAAGRTYYSPGYRSYSGYDYWGQGTQVTLSS”, the entry is “high polyreactivity”; as for “QVQLVESGGGLVQAGGSLRLSCAASARIFVINAMGWYRQAPGKERELVADITWSGGSTYADSVKGRFTISRDNAKNTVYLQMYSLKPEDTAVYYCAAVTFVPRSTNGISLYDYWGQGTQVTVSS”, “high polyreactivity”; as for “QVQLVESGGGLVQAGGSLRLSCAASARIFVPYARGWYRQAPGKERELVAAIRKSGGSTYYADSVKGRFTISRDNAKNTVYLQMNSLKPDVTAVYYCAASTLGMVQTQPGKRKTYLYGYWGQGTQVTVSS”, “high polyreactivity”.
With “QVQLVESGGGLVQAGGSLRLSCAASARIFWRNTMGWSRQAPGKERELVAAINYSGGRTYYADSVQGRFTISRDKAKNTVYLQMNSLKPEDTAVFDCAATPPVATNGRYYYWGQGTQVTVSS”, the “polyreactivity (PSR sort gate)” value was “low polyreactivity”.
As for “QVQLVESGGGLVQAGGSLRLSCAASARIFYPYAMGWYRQAPGKERELVAAINWIGGSTYYADSVKGRFTISRDNAKYTVYLQMNSLKPEDSAVYYCAASYWHRRYDYWGQGTQVTLSS”, the entry is “high polyreactivity”; as for “QVQLVESGGGLVQAGGSLRLSCAASARIIFRNAMGWYRQAPGKERELVAAITYSGGSTYYADSVKGRFTISRDNAKNTVYLQMNSLKPEDTAVYYCGAGYWFCYSRVTRYDYWGQGTQVTVSS”, “high polyreactivity”; as for “QVQLVESGGGLVQAGGSLRLSCAASARILAYYAMGWYRQAPGKERELVAAITSGGRTYYADSVKGRFTISRDNAKNTVYLQMNSLKPEDTAVYYGAVRWYPRYGSRYDYWGQGTQVTVSS”, “high polyreactivity”.
To “QVQLVESGGGLVQAGGSLRLSCAASARTFSYYAMGLYRQEPGKERELVAAIRRSSGTTYYADSVKGRFTISSDNAKYSVYLQMNSLKPEDTADYYCNARSRRASIKRDYWGQGTQVSVSS” belongs “high polyreactivity”; to “QVQLVESGGGLVQAGGSLRLSCAASARTFTRYAIGWYRQAPGKERELVAAISFSVGSTYYADSVKGRFTISRDNAKYSVYLQMNRLKPEDTAVYYCARPSGDAWEGPRMDYWGQCTQVTVSS”, “low polyreactivity”; to “QVQLVESGGGLVQAGGSLRLSCAASASISYYYAMGWYRQETGKERELVAAITRTGTTNYADSVKGRFTISRDNAKNTVYLQMNSLKPEDTAVYYCAKRSTGRLQSYNYRGQGTQVTVSS”, “low polyreactivity”.
Turning to “QVQLVESGGGLVQAGGSLRLSCAASASTFGAYAMGWYRQAPGKERELVAAITESGDNTYYADSVKGRFTISRDNAKNTVYLQMNSLKPEDTAVFYCAADDGYSTYEYWGQGTQVTVSS”, the “polyreactivity (PSR sort gate)” value was “low polyreactivity”.
To “QVQLVESGGGLVQAGGSLRLSCAASASTFYTKVMGWYRPAPGKERELVAAISSSGSRTYYADSVKGRFTISRDNAKNTVYLQMNSLKPEDTAVYYCNAYYRLEPDDGDYDYWGQGTQVTVSS” belongs “high polyreactivity”; to “QVQLVESGGGLVQAGGSLRLSCAASASTVSRYAMGWYRQAPGKEREVVAGISWSGGNTYSADSVKGRFTISRDNAKNTVYLQMNSLKPEDTAVYYCAADFLDYWGVYGWAEYEYWGQGTQVTVSS”, “low polyreactivity”.
As for “QVQLVESGGGLVQAGGSLRLSCAASAYIYRGYPLGRYRQAPGKERELVAAISNIGGTTYYADSVKGRFTISRDNAKNTVYLQMISLKREDTEVYYCAAEHSYWGWAYGYWGQGTQVTLSS”, the entry is “high polyreactivity”; as for “QVQLVESGGGLVQAGGSLRLSCAASDLQILCYGWYRQPPGKERELFASITRGDGSTYYADSVKGRFTISRDNAKNTVFIQMNSLKPEDTAVYYCADYNDWRDELYDYWGQGTQVTVSS”, “low polyreactivity”; as for “QVQLVESGGGLVQAGGSLRLSCAASGAIFAYNAMGWYRQAPGKEREFVAAISQSGGRTYYADSVKGRFTISRDYEKNTVYLQMNTLKPEDTAVYYCATDGIRLTSHRDYDYWGQGTQVTVSS”, “low polyreactivity”.
With “QVQLVESGGGLVQAGGSLRLSCAASGAIFESNAMGWYRQAPGKEREFVAAIDQNDGSSNYADSVKGRFTISRDNAKNTVYLQMNSLKPEDSAVYYCAAEVPGYWYLDYEYWGHGTQVTVSS”, the “polyreactivity (PSR sort gate)” value is on record as “low polyreactivity”.
As for “QVQLVESGGGLVQAGGSLRLSCAASGAIFRGYAMGWYRQAPGKERELVATITRRCGSTYYADSVKGRFTISRDNAKNTVYLQMNSLKPEDTAVYYCNARLTFLSSWLGKLQWGYDYWGQGTQVTVSS”, the entry is “low polyreactivity”; as for “QVQLVESGGGLVQAGGSLRLSCAASGAIFVFYVMGWYRQAPGKERELVAAISNSGSSTYYADSVKGRFTISRDNAKNTVYLQMNSLKPEDTAVYYCAAEYKIPVGFDYWGQGTQVTVSS”, “low polyreactivity”.
As for “QVQLVESGGGLVQAGGSLRLSCAASGCTFDYNAMGWYRQAPGKEREFVAAIDYSSGSTYYADSVKGRFTISRDNAKNTVYLQMNCLKPEDTAVYYCNAPIAVGSGLFDYWGQGTQVTVSS”, the “polyreactivity (PSR sort gate)” value is “high polyreactivity”.
To “QVQLVESGGGLVQAGGSLRLSCAASGDIFSRYMGWYRQAPGKERELVAAITRGGVSTYYADSVKGRFTISRDNAKNTVYLQMNSLKPEDTAVYYCATGRPVYYVASYDYDYWGQGTQVTVSS” belongs “low polyreactivity”; to “QVQLVESGGGLVQAGGSLRLSCAASGFIDAYTMGWYRPAPGKERELVAAITWSGGRTSYADSVKGRFTISRDTAKNTVYLQMNSLKPEDTAGYYCAKDVTPYSPDDDYWGQGTQVTVSS”, “low polyreactivity”; to “QVQLVESGGGLVQAGGSLRLSCAASGFIDAYTMGWYRQAPGKERELVAAITWSGGRTYYADSVKGRFTISRDNAKNTVYLQMNSLKPEDTAVYYCAATVSRGFYSWWYDYWGQGTQVTVSS”, “low polyreactivity”.
As for “QVQLVESGGGLVQAGGSLRLSCAASGFIFADNAMGWYRQAPGKERELVAAINLGGGDTYYADSVKGRFTISRDNAKNTVYLQMNSLKPEDTAVYYCATVWFSEGYDYNHWGQGTQVTVSS”, the “polyreactivity (PSR sort gate)” value is “low polyreactivity”.
To “QVQLVESGGGLVQAGGSLRLSCAASGFIFADNTMGWYRQAPGKERELVGAISRRGGSTYYADSVKGRFTISRDNSKNTVYLQMNSLKPEDTAVYYCAARPFVKHDYWGQGTLVTVSS” belongs “high polyreactivity”.
As for “QVQLVESGGGLVQAGGSLRLSCAASGFIFADYAMGWYRQAPGKERELVAAITRGGITYYADSVKGRFTISRDNAKNTVYLQMNSLKPEDTAVYYCAVDPSPRSYYNYYWGQGTQVTVSS”, the entry is “high polyreactivity”; as for “QVQLVESGGGLVQAGGSLRLSCAASGFIFADYAMGWYRQAPGKERELVAAITRSGGRTYYADSVKGRFTISRDNAKNTVYLQMNSLKPEDTAVYYCAAVGPGRRRDYWGQGTQVTVSS”, “high polyreactivity”; as for “QVQLVESGGGLVQAGGSLRLSCAASGFIFADYAMGWYRQAPGKERELVAAITSSGTRTYYADSVKGRFTISRDNAKNTVYLQMNSLKPEDTAVYYCAVRGVYYYHCAFDYWGQGTQVTVSS”, “high polyreactivity”.
To “QVQLVESGGGLVQAGGSLRLSCAASGFIFADYTMGWYRQAPGKERELVAAITWSGDSTYYADSVKGRFTISRDNAKNTVYLQMNSLKPEDTAVYYCNAVNDWYYAYYGVTSFRSYDYWGQGTQVTVSS” belongs “low polyreactivity”; to “QVQLVESGGGLVQAGGSLRLSCAASGFIFAEYAMGWYRQAPGKERELVAAITSGGSTSYADSVKGRFTISRDNAKNTVYLQMNSLKPEDTAVYYCAATWYYHYNDWKHWYEYGYWGQGTQVTVSS”, “low polyreactivity”; to “QVQLVESGGGLVQAGGSLRLSCAASGFIFAGYAMGWYRQAPGKERELVAAISSGGGSTYYADSVKGRFTISRDNAKNTVYLQMNSLKPEDTAVYYCAARRLYPPGYYYWGQGTQVTVSS”, “high polyreactivity”.
For “QVQLVESGGGLVQAGGSLRLSCAASGFIFAHNAMGWYRQAPGKARELVAAITSSGGSTYYADSVKGRFTISRDNAKNTVYLQKNSLKPEDTAVYYCNAYTYARRGYDYWGQGTQVTVSS”, the “polyreactivity (PSR sort gate)” value is recorded as “high polyreactivity”.
To “QVQLVESGGGLVQAGGSLRLSCAASGFIFAHNAMGWYRQAPGKERELVADITRDGNTYYADSVKGRFTISRDNAKNTVYLQMNSLKTEDTAVYYCAADVSTTWYWWGQFEFEYWGQGTQVTVSS” belongs “high polyreactivity”; to “QVQLVESGGGLVQAGGSLRLSCAASGFIFAKYVMGWYRQAPGKERELVAAISRSGGSTYYADSVKGRFTISRDNAKNTVYLQLNSLKPEDTAVYYCAADQTTTGGMDYWGQGTQITVSS”, “high polyreactivity”; to “QVQLVESGGGLVQAGGSLRLSCAASGFIFAKYVMGWYRQAPGKERELVAAISRSGGSTYYADSVKGRFTISRDNAKNTVYLQMNSLKPDDTAVYYFAADQTTTGGMDFWGQGTQVTVSS”, “high polyreactivity”.
To “QVQLVESGGGLVQAGGSLRLSCAASGFIFANYAMGWDRQAPGKERELVAAISTSGSSTYYADSVKGRFTISRDNAKNTVYLQMNSLKPKDTAVYYCRTSGKHRLYISSYRFEYWGQGTQVTVSS” belongs “high polyreactivity”.
Regarding “QVQLVESGGGLVQAGGSLRLSCAASGFIFARYAMGWYRQAPGKERELVAAISVSGGSTYYADSVKGRFTISRDNAKNTVYLQMNSLKPEDTAVYYCAATRPFVSGWIMDYWGQGTQVTVSS”, the “polyreactivity (PSR sort gate)” value is reported as “high polyreactivity”.
In the case of “QVQLVESGGGLVQAGGSLRLSCAASGFIFARYGMGWYRQAPGKERELVAAIRTSGGTYYADSVKGRFTISRDNAKNTVYLQMNSLKPEDTAVYYCNVYRRVIWPKNYDYWGQGTQVTVSS”, the “polyreactivity (PSR sort gate)” value is “high polyreactivity”.
To “QVQLVESGGGLVQAGGSLRLSCAASGFIFASNAMGWYRQAPGKERELVAAITRSGGITYYADSVKGRFTISRDNAKNTVYLQMNSLKPEDTAVYYCNKGRRTKNSAYYDYWGQGTQVTVSS” belongs “high polyreactivity”.
